# Source: the nanobody polyreactivity screen of Harvey et al. (2022)
# Experiment: yeast display, Sf9 membrane polyspecificity reagent, FACS + sequencing; frameworks hold sequencing errors
# Procedure, shortened: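 A synthetic nanobody library was expressed on Saccharomyces cerevisiae BJ5465 by galactose induction for 36–48 hours. The library was stained for 1 hour at 4 °C with 10% biotinylated, detergent-solubilized Sf9 membrane reagent and enriched with streptavidin microbeads before FACS. Low and high (top ~1%) gates were set on anti-HA fluorescence for expression and streptavidin fluorescence for reagent binding, and each polyreactivity label reflects the gate of origin.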
row,Sequence,polyreactivity (PSR sort gate)
1,QVQLVESGGGLVQAGGSLRLSCAASGLTSYDYGMGWYRPAPGIERELVAAITWSGGSTYYADSVKGRFTISRDNAKNTVYLQMNSLKPEDTAVYYCAADTWGYGWYGYWGHGTQVTVSS,low polyreactivity
2,QVQLVESGGGLVQAGGSLRLSCAASGLTVNRYALGWYRQAPGKERELVASIRWSGGSTYYADSVKGRFTISRDNAKNTVYLQMNSLKPEDTAVYYCAKSIASAAYDSWGQGTQVTVSS,low polyreactivity
3,QVQLVESGGGLVQAGGSLRLSCAASGLTVYYYAMGWYRQAPGKERELVASISRSGGSTYYADSVKGSFTISRDNAKNTVYLQMNSLKPEDTAVYYCNVSVYRCTVKGTFDMDHWGQGTQVTVSW,high polyreactivity
4,QVQLVESGGGLVQAGGSLRLSCAASGLTYAYNAMGGSRQAPGKERELVAAISKRGGSTYYADSVKGRFTISRDNAKNTVYLQMNSLKPEDTAVYYCAAGTYAIHDYWGLGTQVTVSS,high polyreactivity
5,QVQLVESGGGLVQAGGSLRLSCAASGLTYSNAMGWYRQAPVKERELVAAISWRGGRTYYADSVKGRFTISRDNAKNTVYLQMNSLKPEDTAVYYCAKYAHGHKWYGYWGQGTQVTVSS,low polyreactivity
6,QVQLVESGGGLVQAGGSLRLSCAASGMIFKFYDMGWYRQAPGKEREWVASISWSGGRTYYADSVKGRFTISRDNAKNTVYLQMNSLKPEDTAVYYCAAGRYYGYGYWGQGTQVTVSS,high polyreactivity
7,QVQLVESGGGLVQAGGSLRLSCAASGMTFDYYAMGWYRQAPGKERELVAAIRSGGSTNYADSVKGRFTISRDNAKNTVYLQMNSLKPEDTAVYYCAAVRYFPWYDYWGQGTQVTVSS,high polyreactivity
8,QVQLVESGGGLVQAGGSLRLSCAASGMTFTKNVMGWYRQAPGKEWELVAVISRSGGSTYYADSVKGRFTISRDNAKNTVYLQMNSLKPEDTAVYYCTVKGPGPSRGNYWGQVTQVTVSS,low polyreactivity
9,QVQLVESGGGLVQAGGSLRLSCAASGMTFTSNVLGWYRQAHGKERELVAAISSGGSTYDADSVKGRFTMSRDNAKNTVYLQMNSLKPEDTAVYYCNSKLWGQYDYWGQGTQVTVSS,low polyreactivity
10,QVQLVESGGGLVQAGGSLRLSCAASGMTFWSYAMGWYRQAPGKDRELVAAITIGGTTYYADSVKGRFTISRDNAKNTVYLQMNSLKPEDTAVYYCAVDSTDQAPPTYDYWGQGTQVTVSS,low polyreactivity
11,QVQLVESGGGLVQAGGSLRLSCAASGMTLGSYAMGWDRQAPGKERELVAAISRRSGRTYYADSVKGRFTISRDNAKNTVYLKMNSLKPEDTAVFYCNRGYTAQVYTEFDDWGQGTQVTVSS,low polyreactivity
12,QVQLVESGGGLVQAGGSLRLSCAASGNIFADYVMGWYRQAPGKERELVAAIDKSGGRTYYADSVKGRFTISRDNEKNNVYLQMNILKPEDTAVYYCSAYDRYRRMDYWGQGTQVTVSS,high polyreactivity
13,QVQLVESGGGLVQAGGSLRLSCAASGNIFAFYAMGWYRQAPGKERELVADISWSGASTYYADSVKGRFTISRDNAKNTVYLQMNSLKPEDTAVYYCAAYATYYVIFYGDEYWGQGTQVTVSS,high polyreactivity
14,QVQLVESGGGLVQAGGSLRLSCAASGNIFAINAMGWYRQAPGKERELVAAITWSSARTYYADSVKGRFTISRDNAKNTVYLQMNSLKPEDTAVYYCNAPALFEYDYWGQGTQVTVSS,high polyreactivity
15,QVQLVESGGGLVQAGGSLRLSCAASGNIFAWYAMGWYRQAPGKERELVADISSRGGSTYYADSVKGRFTISRDNAKNTVYLQMNSLKPEDTAVYYCAAVWYWTQDYDYWGRGTQVTVSS,low polyreactivity
16,QVQLVESGGGLVQAGGSLRLSCAASGNIFDAYGMGWNRQAPGKETELVAAIDWTGGSTYYADSVKGRFTISRDNAKNTVYLQMNSLKPEDTAVYYCAADWGGGYQQYGNDWVNYWGQGTQVTVSS,low polyreactivity
17,QVQLVESGGGLVQAGGSLRLSCAASGNIFDHYAMGWYRQAPGKERELVASITDSGDSTSYADSVKGRFTISRDNAKNTVYLQMNSLKPEDTAVYYCAADPYSVYGGDYWGQGTQVTVSS,low polyreactivity
18,QVQLVESGGGLVQAGGSLRLSCAASGNIFDLYARGWSRQAPGKERELVAAISASGGRTYYADSVKGRFTISRDNAKNTVYLQMNSLKPEDTAVYYCAAVASYGTDFYYWGQGTQVTVSS,high polyreactivity
19,QVQLVESGGGLVQAGGSLRLSCAASGNIFDRYVMGWYRQAPGKERELVAAISVSGGSTYYADSVKGRFTISRDNAKNTVYLQMNSLKPEDTAVYYCAAHSRLINWYDYWGQGTQVTVSS,high polyreactivity
20,QVQLVESGGGLVQAGGSLRLSCAASGNIFDVYAMGWYRQAPGKERELVAAISRSGSSTYYADSVKGRFTISRDNAKNTVYLQMNSLKQEDTAVYYCAAKISLGQRTYYYWGQGTQVTVSS,high polyreactivity
21,QVQLVESGGGLVQAGGSLRLSCAASGNIFESYGMGGYRQAPGKERELVAAISFSGDSTYYADSVKGRFTISRDNAKNSVYLQMNSLKPEDTAVYYCATDVGYVYGYYYWGQGTQVTVSS,low polyreactivity

row,Sequence,polyreactivity (PSR sort gate)
1,QVQLVESGGGLVQAGGSLRLSCAASGNIFEYYAMGWYRKAPGKERELVATITSGGSTNYADSVKGRFTISRDNAKNTVYLQMNSLKPEDTAVYYCNADIISVSVYYFIVEYDYWGQGTQVTVSS,low polyreactivity
2,QVQLVESGGGLVQAGGSLRLSCAASGNIFFSNAMGWYRQAPGKERELVASISQSGGSTYYADSVKGRFTISRDNAKNTVYLQMNSLKPEDTAVYYCAATQVRRGPAWGRDYWGQGTQVTVSS,low polyreactivity
3,QVQLVESGGGLVQAGGSLRLSCAASGNIFGQNAMGWYRQAPGKERELVAAISSNGGRTYYADSVKGRFTISRDNAKNTVYLQMNSLKPEDTAVYYCAAEAVYAYEWYYYWGQGTQVTVSS,high polyreactivity
4,QVQLVESGGGLVQAGGSLRLSCAASGNIFKGHVMGSYRKAPGKERELVAAISRSGGYTYYAVSVKGRFTISRDNAKNTVYLQMNSLKPADTAVYYCAAGRRLVRVVGGDYYGRYVYWGQGTQVTLSS,high polyreactivity
5,QVQLVESGGGLVQAGGSLRLSCAASGNIFLDYAMGWYRQAPGKEREWVAAITSGGSTNYADSVKGRFTISRDNAKNTVYLQMNSLKPEDTAVYYCNKDVWDGYDWPEFDYWGQGTQVTVSS,low polyreactivity
6,QVQLVESGGGLVQAGGSLRLSCAASGNIFLRYAMGWYRQAPGKERELVAAISYSGGGSTYYADSVKGRFTISRDNAKNTVYLQMNSLKPEDTAVYYCAKVLTSRTQFFDYDYWGQGTQVTVSS,low polyreactivity
7,QVQLVESGGGLVQAGGSLRLSCAASGNIFLYYAMGWSRQAPGKERELVADIDSSGASTYYADSVKGRFTISRDNAKNTVYLQMNSLKPEDTAVYYCAAEFHWWYAGYDYGYWGQGTQVTVSS,low polyreactivity
8,QVQLVESGGGLVQAGGSLRLSCAASGNIFLYYAMGWYRQAPGKERELVARIDSGGSTYYADSVKGRFTISRDNAKNTVYLQMNSLKPEDTAVYYCATDEGTVGGQQLRPLMDYWGQGTQVTVSS,low polyreactivity
9,QVQLVESGGGLVQAGGSLRLSCAASGNIFNTNARGWYRQAPGKDTELVAAISWNTGSTYADSVKGRFTISRDNAKKTVDLPMNSLKPEDTAVYYCAADRSHAYYRKNRVDYWGQGTQVTVSS,low polyreactivity
10,QVQLVESGGGLVQAGGSLRLSCAASGNIFPDYAMGWYRQAPGKERELVAAISTSGSSTYYADSVKGRFTISRDNAKNNDYLQMNSLKPEDTAVYYCNAYRNADYVYWGQGTQVTVSS,low polyreactivity
11,QVQLVESGGGLVQAGGSLRLSCAASGNIFPRYAMGLYRQAPGKERELVAAITWRTSSTYYADSVKGRFTISRDNAKNTVYLQMNSLKPEDTAVYFCAKTSSRIAGEYWGQGTQVTVSS,low polyreactivity
12,QVQLVESGGGLVQAGGSLRLSCAASGNIFPYNAMGWYRQAPGKERELVASISSGGSTNYADSVKGRFTISRDNAKNTVYLQMNSLKPEDTAVYYCAKDQSVLSRGGTYDYWGQGTQVTVSS,low polyreactivity
13,QVQLVESGGGLVQAGGSLRLSCAASGNIFQAYAMGWSRQAPGKERELVATIRTYADYVKGRFTISRDNAKNTVYLQMNSLKPEDTAVYYCAAQNAMYYDSYSGYDSWGQGTQVTVSS,low polyreactivity
14,QVQLVESGGGLVQAGGSLRLSCAASGNIFRINAMGWYRQAPGKERELVAAISRSVGSTYADSVKGRFTISRDNAKNTVYLQMNSLKPEDTAVYYCNARGRTQQRWVDYWGQGTQVTVSS,high polyreactivity
15,QVQLVESGGGLVQAGGSLRLSCAASGNIFRPYTMGWYRQAPGKERELVARISSGGSTNYADSVKGRFTISRDNGKYTDYFQLNSLKPEVTAVYYWSKRYGTVLSRYGYLGQGTQVTVSS,high polyreactivity
16,QVQLVESGGGLVQAGGSLRLSCAASGNIFSDNTMGWYRQAPGKERELVAVITSGTSTSYADSVKGRFTISRDNAKNTEYFQMNSLKPEDTAVSYAARTGQYKTYGEYDYWGQGTQVTVSS,low polyreactivity
17,QVQLVESGGGLVQAGGSLRLSCAASGNIFSFYTMGWYRQAPGKERELVAAISWSGTSTYYADSVKGRFTISRDNAKNTVYLQMNSLKPEDTAVYYCAAVRRISRYDYWGQGTQVTVSS,high polyreactivity
18,QVQLVESGGGLVQAGGSLRLSCAASGNIFSINAMGWYRQAPGKERELVAAISWSGGSTYYADSVKGRFTISRDNAKNTVYLQMNSLKPEDTAVYYCAADVYYLGYYEYYYWGQGTQVTVSS,high polyreactivity
19,QVQLVESGGGLVQAGGSLRLSCAASGNIFSTYAMGWDRQAPGKERELVAAISSRGTSTYYADSVKGRFTISRDNAKNTVYLQMNSLKPEDTAVYYCNAVIALQLDYWGQGTQVTVSS,high polyreactivity
20,QVQLVESGGGLVQAGGSLRLSCAASGNIFSVYAMVWYRPAPGKERELVAAISSSGGRTYYADSVKGRFTISRDNAKNTVYLQMNSLKPEDTAVYYCAARSYTGQFGYWGQGTQVTVSS,high polyreactivity
